Laboratory results taken from US10131702B2, “Glucagon-GLP-1-GIP triple agonist compounds” (priority 2013, dated 2018).
Where two headings read alike, the source gives them in different places.

Experiments:
Assay in all cases: cell-based or functional assay
[1] = target: T1, human glucagon-like peptide 1 receptor (human, UniProt P43220 24-463)
human GIP receptor [2] = target: T2, human GIP receptor (human, UniProt P48546 22-466)
T2 sequence: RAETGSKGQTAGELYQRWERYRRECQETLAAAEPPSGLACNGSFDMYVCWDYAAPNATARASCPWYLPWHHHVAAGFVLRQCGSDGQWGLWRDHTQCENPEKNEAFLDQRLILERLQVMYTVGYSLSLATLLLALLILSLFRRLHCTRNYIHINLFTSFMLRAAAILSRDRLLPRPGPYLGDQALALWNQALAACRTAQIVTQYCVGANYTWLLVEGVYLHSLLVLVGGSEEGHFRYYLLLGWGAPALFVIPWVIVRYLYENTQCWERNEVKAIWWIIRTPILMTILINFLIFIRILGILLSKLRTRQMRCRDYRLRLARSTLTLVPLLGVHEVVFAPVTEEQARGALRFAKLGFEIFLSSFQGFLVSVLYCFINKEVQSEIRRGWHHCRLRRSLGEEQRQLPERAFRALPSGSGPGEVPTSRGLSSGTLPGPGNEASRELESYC

human glucagon receptor [3] = target: T3, human glucagon receptor (human, UniProt P47871 26-477)
[4] = target: T1, human glucagon-like peptide 1 receptor; remark: listed apart in the source
human GIP receptor [5] = target: T2, human GIP receptor; remark: listed apart in the source
human glucagon receptor [6] = target: T3, human glucagon receptor; remark: listed apart in the source

T3 sequence (P47871 26-477): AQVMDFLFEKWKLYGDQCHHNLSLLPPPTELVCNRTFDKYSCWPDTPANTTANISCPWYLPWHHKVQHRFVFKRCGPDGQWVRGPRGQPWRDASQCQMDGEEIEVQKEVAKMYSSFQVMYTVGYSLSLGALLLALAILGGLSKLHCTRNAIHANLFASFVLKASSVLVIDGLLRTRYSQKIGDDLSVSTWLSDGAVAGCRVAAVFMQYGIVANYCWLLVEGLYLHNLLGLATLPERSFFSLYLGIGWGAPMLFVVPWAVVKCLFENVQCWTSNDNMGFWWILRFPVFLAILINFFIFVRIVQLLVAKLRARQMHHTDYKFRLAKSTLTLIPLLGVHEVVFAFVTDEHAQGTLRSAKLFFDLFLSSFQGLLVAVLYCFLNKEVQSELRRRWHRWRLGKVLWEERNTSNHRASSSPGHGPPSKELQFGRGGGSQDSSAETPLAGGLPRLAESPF

B1: Compound 19 (peptide)
peptide: YAQGTFTSDYSIYLDKKAAHDFVEWLLSA
HELM: PEPTIDE1{Y.[Aib].Q.G.T.F.T.S.D.Y.S.I.Y.L.D.K.K.A.A.H.D.F.V.E.W.L.L.S.A.[am]}$$$$V2.0
SMILES: CC[C@H](C)[C@H](NC(=O)[C@H](CO)NC(=O)[C@H](Cc1ccc(O)cc1)NC(=O)[C@H](CC(=O)O)NC(=O)[C@H](CO)NC(=O)[C@@H](NC(=O)[C@H](Cc1ccccc1)NC(=O)[C@@H](NC(=O)CNC(=O)[C@H](CCC(N)=O)NC(=O)C(C)(C)NC(=O)[C@@H](N)Cc1ccc(O)cc1)[C@@H](C)O)[C@@H](C)O)C(=O)N[C@@H](Cc1ccc(O)cc1)C(=O)N[C@@H](CC(C)C)C(=O)N[C@@H](CC(=O)O)C(=O)N[C@@H](CCCCN)C(=O)N[C@@H](CCCCN)C(=O)N[C@@H](C)C(=O)N[C@@H](C)C(=O)N[C@@H](Cc1c[nH]cn1)C(=O)N[C@@H](CC(=O)O)C(=O)N[C@@H](Cc1ccccc1)C(=O)N[C@H](C(=O)N[C@@H](CCC(=O)O)C(=O)N[C@@H](Cc1c[nH]c2ccccc12)C(=O)N[C@@H](CC(C)C)C(=O)N[C@@H](CC(C)C)C(=O)N[C@@H](CO)C(=O)N[C@@H](C)C(N)=O)C(C)C
Q: With B1 as the binder, how does the “EC50 (cAMP induction)” value [1] read?
A: 0.013 nM

Q: And the “EC50 (cAMP induction)” value (human GIP receptor [2])?
A: 0.032 nM

Q: What about the “EC50 (cAMP induction)” value (human glucagon receptor [3]) of the same binder?
A: 0.024 nM

Q: What about the “EC50 (cAMP induction)” value [4] of the same binder?
A: 0.024 nM

Q: What about the “EC50 (cAMP induction)” value (human GIP receptor [5]) of the same binder?
A: 0.013 nM

Q: And the “EC50 (cAMP induction)” value (human glucagon receptor [6])?
A: 0.024 nM

B2: Compound 21 (peptide)
peptide: YAQGTFTSDYSKALDEKAAKEFVEWLLSA
HELM: PEPTIDE1{Y.[Aib].Q.G.T.F.T.S.D.Y.S.K.A.L.D.E.K.A.A.K.E.F.V.E.W.L.L.S.A.[am]}$$$$V2.0
SMILES: CC(C)C[C@H](NC(=O)[C@H](C)NC(=O)[C@H](CCCCN)NC(=O)[C@H](CO)NC(=O)[C@H](Cc1ccc(O)cc1)NC(=O)[C@H](CC(=O)O)NC(=O)[C@H](CO)NC(=O)[C@@H](NC(=O)[C@H](Cc1ccccc1)NC(=O)[C@@H](NC(=O)CNC(=O)[C@H](CCC(N)=O)NC(=O)C(C)(C)NC(=O)[C@@H](N)Cc1ccc(O)cc1)[C@@H](C)O)[C@@H](C)O)C(=O)N[C@@H](CC(=O)O)C(=O)N[C@@H](CCC(=O)O)C(=O)N[C@@H](CCCCN)C(=O)N[C@@H](C)C(=O)N[C@@H](C)C(=O)N[C@@H](CCCCN)C(=O)N[C@@H](CCC(=O)O)C(=O)N[C@@H](Cc1ccccc1)C(=O)N[C@H](C(=O)N[C@@H](CCC(=O)O)C(=O)N[C@@H](Cc1c[nH]c2ccccc12)C(=O)N[C@@H](CC(C)C)C(=O)N[C@@H](CC(C)C)C(=O)N[C@@H](CO)C(=O)N[C@@H](C)C(N)=O)C(C)C
Q: For B2, which “EC50 (cAMP induction)” value [1] is on record?
A: 0.014 nM

Q: What about the “EC50 (cAMP induction)” value (human GIP receptor [2]) of the same binder?
A: 0.18 nM

Q: What about the “EC50 (cAMP induction)” value (human glucagon receptor [3]) of the same binder?
A: 0.1 nM

Q: What about the “EC50 (cAMP induction)” value [4] of the same binder?
A: 0.1 nM

Q: And the “EC50 (cAMP induction)” value (human GIP receptor [5])?
A: 0.015 nM

Q: What about the “EC50 (cAMP induction)” value (human glucagon receptor [6]) of the same binder?
A: 0.1 nM

B3: Compound 20 (peptide)
peptide: YAQGTFTSDYSIYLEKKAAKEFVEWLLSA
HELM: PEPTIDE1{Y.[Aib].Q.G.T.F.T.S.D.Y.S.I.Y.L.E.K.K.A.A.K.E.F.V.E.W.L.L.S.A.[am]}$$$$V2.0
SMILES: CC[C@H](C)[C@H](NC(=O)[C@H](CO)NC(=O)[C@H](Cc1ccc(O)cc1)NC(=O)[C@H](CC(=O)O)NC(=O)[C@H](CO)NC(=O)[C@@H](NC(=O)[C@H](Cc1ccccc1)NC(=O)[C@@H](NC(=O)CNC(=O)[C@H](CCC(N)=O)NC(=O)C(C)(C)NC(=O)[C@@H](N)Cc1ccc(O)cc1)[C@@H](C)O)[C@@H](C)O)C(=O)N[C@@H](Cc1ccc(O)cc1)C(=O)N[C@@H](CC(C)C)C(=O)N[C@@H](CCC(=O)O)C(=O)N[C@@H](CCCCN)C(=O)N[C@@H](CCCCN)C(=O)N[C@@H](C)C(=O)N[C@@H](C)C(=O)N[C@@H](CCCCN)C(=O)N[C@@H](CCC(=O)O)C(=O)N[C@@H](Cc1ccccc1)C(=O)N[C@H](C(=O)N[C@@H](CCC(=O)O)C(=O)N[C@@H](Cc1c[nH]c2ccccc12)C(=O)N[C@@H](CC(C)C)C(=O)N[C@@H](CC(C)C)C(=O)N[C@@H](CO)C(=O)N[C@@H](C)C(N)=O)C(C)C
Q: B3 was tested. Which “EC50 (cAMP induction)” value [1] did it give?
A: 0.0094 nM

Q: And the “EC50 (cAMP induction)” value (human GIP receptor [2])?
A: 0.047 nM

Q: What about the “EC50 (cAMP induction)” value (human glucagon receptor [3]) of the same binder?
A: 0.057 nM

Q: And the “EC50 (cAMP induction)” value [4]?
A: 0.057 nM

Q: What about the “EC50 (cAMP induction)” value (human GIP receptor [5]) of the same binder?
A: 0.009 nM

Q: What about the “EC50 (cAMP induction)” value (human glucagon receptor [6]) of the same binder?
A: 0.057 nM
